Data from the supplement of paper PMC10567573.

B1: ADD1 (parent)
chain: LRHSFQKQQREKTRWLNSGRGDEA
B2: NET1 (parent)
chain: IKRTIRVLDVNNQSFREQEEPSNK

Variants of: B1
Test: protein stability index of a GFP-peptide fusion (GPS, HEK-293T) (PSI 1-6); higher = more stable
Details: c terminus: a fixed tail appended
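Also: lentivirally expressed fusions sorted by FACS into six bins by GFP to DsRed ratio, PSI derived from sequencing read proportions per bin multiplied by bin number.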

Protein stability index: each site, then its substitutions
F5: P 4.4, A 4.44, N 4.37, I 3.74, E 4.71, Y 3.71, V 4.17, S 4.17, T 4.11, G 4.16, M 3.8, H 4.24, C 2.21, K 3.7, L 3.83, R 3.43, W 3.44, D 4.37, Q 4.19
K7: I 3.1, R 3.01, G 4.57, M 3.22, F 3.63, C 1.8, L 3.89, Q 4.27, H 3.53, S 4.24, A 3.95, Y 3.51, P 3.86, D 3.87, E 4.33, W 3.08, N 4.21, T 3.67, V 3.38
E11: D 4.47, F 2.24, C 1.93, G 3.27, A 3.41
S4: F 2.92, W 3.04, V 3.15, P 3.3, L 2.26, Y 2.45, R 3.21, A 3.59, I 2.82, E 3.86, T 3.57, N 4.03, C 3.01, D 3.88, G 3.45, K 3, M 2.84, Q 3.72, H 2.74
Q8: M 3.32, P 4.13, N 3.15, F 2.73, T 3.93, G 3.52, Y 2.71, H 3.41, W 2.08, E 3.83, R 3.48, A 4, V 3.48, K 3.35, L 3.05, C 2.62, S 3.63, D 3.87, I 3.64
L1: D 3.7, V 3.71, R 4.42, G 4.21, T 4.32, M 3.65, P 4.04, H 3.92, F 3.8, C 3.23, Q 3.78, K 3.62, E 4.34, N 4.11, S 4.35, Y 3.75, W 2.92, A 4.57, I 3.92
Q9: C 1.73, A 4.12, F 2.71, L 3.23, N 3.72, P 3.44, V 3.35, E 4.29, Y 3.01, R 3.75, S 3.64, T 3.83, H 3.7, W 2.94, I 3.18, M 3.84, K 3.92, G 4.15, D 4.06
R2: P 4.33, A 4.17, T 4.05, G 3.97, N 4.3, Y 3.26, V 3.11, E 4.42, S 3.6, F 2.99, H 4.03, L 3, Q 3.94, W 2.92, C 3.58, K 3.71, I 3.06, M 3.85, D 5.03
Q6: R 3.7, S 3.18, I 3.25, K 3.99, D 4.37, L 3.54, Y 2.85, P 4.11, V 3.56, A 3.78, C 2.27, G 3.11, E 4.14, M 3.49, T 3.7, N 3.87, F 3.21, W 2.53, H 3.69
R10: D 4.23, W 2.66, Y 3.64, N 3.95, I 3.65, M 3.44, G 3.72, F 3.92, V 3.48, H 4.13, A 4.17, P 3.53, E 4.67, T 3.83, Q 4.44, S 4.58, C 3.58, K 3.9, L 3.82
H3: A 3.67, P 3.77, T 3.94, N 3.65, V 3.32, L 3.54, I 3.16, Y 3.48, M 3.29, C 2.31, D 4.53, K 3.75, Q 3.67, W 2.28, S 4.03, F 3.14, E 3.98, G 3.93, R 3.61

Variants of: B2
Test: as above
Details: c terminus: a fixed tail appended

Protein stability index, by site and new letter:
E19: C 2.74, P 3.44, M 3.15, Y 2.43, G 4.21, I 2.38, W 1.75, N 2.89, L 2.27, F 2.15, S 2.44, V 2.68, D 2.84, R 2.6, H 2.9, K 3.88, A 2.57, T 3.34, Q 2.76
P21: T 3.57, E 3.36, L 3.93, F 2.35, R 3.68, K 4.15, N 3.92, M 3.11, C 3.54, A 3.29, H 3.75, W 3.12, Y 3.78, S 4.27, V 3.22, I 2.57, G 2.72, Q 3.34, D 3.97
N23: C 3.8, T 3.73, H 2.28, I 3.94, M 3.41, S 3.97, F 2.96, V 4.04, G 3.56, D 4.51, Y 2.07, K 3.56, Q 3.65, A 2.99, L 3.16, E 3.96, P 2.87
S22: H 3.83, M 4.02, C 3.59, T 3.14, K 3.87, L 2.64, D 3.99, R 3.85, N 3.97, P 3.64, I 3.28, Y 3.34, E 3.42, A 3.04, F 2.55, G 2.49, V 3.23, W 1.92, Q 2.8
E17: T 3.03, P 2.92, N 3.16, Y 2.44, Q 3.14, V 2.8, W 1.74, R 3.42, S 3.16
K24: E 4.37, D 3.79, Y 3.61, F 2.98, R 3.52, W 2.61, H 4.11, I 3.29, S 4.07, Q 4.2, M 3.82, V 3.73, G 3.83, A 3.46, N 3.99, L 4.23, P 3.55, C 3.4, T 4
Q18: N 3.52, Y 2.66, S 2.79, G 3.59, A 2.27, V 3.43, I 3.1, P 3.49, M 3.07, L 3.06, K 2.91, F 2.52, R 3.1, T 3.37, C 3.09, D 4.15, H 3.7, E 3.76
E20: Y 2.75, H 3.05, D 3.23, I 3.37, F 2.97, K 2.9, N 3.52, S 3.57, V 3.04, P 3.33, G 3.19, W 2.31, T 3.41, M 3.16, R 2.93, Q 2.8, A 3.69, L 3.16, C 3.27
